B1: KCTD10 (parent)
chain: SSKEEQKLIATSNKPAVKLLYNRS

Variants of: B1
Assay: protein stability index of a GFP-peptide fusion (GPS, HEK-293T) (PSI 1-6); higher = more stable
Conditions: c terminus: a fixed tail appended
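Also: lentivirally expressed fusions sorted by FACS into six bins by GFP to DsRed ratio, PSI derived from sequencing read proportions per bin multiplied by bin number.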

Which protein stability index does the source give for SSKEEQKLIATSNKPANKLLYNRS [V17N] here?
Its protein stability index is 4.76.

For SSKEEQKLIATSNKPASKLLYNRS [V17S], which protein stability index is on record?
The protein stability index was 4.3.

With SSKEEQKLIATSNKPAYKLLYNRS [V17Y] as the variant, how does the protein stability index read?
Its protein stability index is 3.51.

With SSKEEQKLIATSNKPAGKLLYNRS [V17G] as the variant, how does the protein stability index read?
The protein stability index was 4.3.

Which protein stability index does the source give for SSKEEQKLIATSNKPAQKLLYNRS [V17Q] here?
The protein stability index was 4.52.

For SSKEEQKLIATSNKPAHKLLYNRS [V17H], which protein stability index is on record?
The protein stability index was 4.35.

Which protein stability index does the source give for SSKEEQKLIATSNKPATKLLYNRS [V17T] here?
The protein stability index was 4.28.

With SSKEEQKLIATSNKPAEKLLYNRS [V17E] as the variant, how does the protein stability index read?
Its protein stability index is 4.15.

Which protein stability index does the source give for SSKEEQKLIATSNKPAWKLLYNRS [V17W] here?
Its protein stability index is 3.39.

With SSKEEQKLIATSNKPAMKLLYNRS [V17M] as the variant, how does the protein stability index read?
The protein stability index was 3.97.

With SSKEEQKLIATSNKPAFKLLYNRS [V17F] as the variant, how does the protein stability index read?
The protein stability index was 2.74.

For SSKEEQKLIATSNKPAPKLLYNRS [V17P], which protein stability index is on record?
Its protein stability index is 4.31.

Which protein stability index does the source give for SSKEEQKLIATSNKPARKLLYNRS [V17R] here?
The protein stability index was 3.94.

With SSKEEQKLIATSNKPAIKLLYNRS [V17I] as the variant, how does the protein stability index read?
Its protein stability index is 4.02.

With SSKEEQKLIATSNKPAAKLLYNRS [V17A] as the variant, how does the protein stability index read?
The protein stability index was 4.34.

Which protein stability index does the source give for SSKEEQKLIATSNKPALKLLYNRS [V17L] here?
Its protein stability index is 4.02.

For SSKEEQKLIATSNKPAKKLLYNRS [V17K], which protein stability index is on record?
The protein stability index was 4.61.

For SSKEEQKLIATSNKPADKLLYNRS [V17D], which protein stability index is on record?
The protein stability index was 4.41.

Which protein stability index does the source give for SSKEEQKLIATSNKPACKLLYNRS [V17C] here?
The protein stability index was 4.21.

Which protein stability index does the source give for SSKEEQKLIATSNKPLVKLLYNRS [A16L] here?
Its protein stability index is 3.54.

Which protein stability index does the source give for SSKEEQKLIATSNKPCVKLLYNRS [A16C] here?
Its protein stability index is 3.74.

With SSKEEQKLIATSNKPDVKLLYNRS [A16D] as the variant, how does the protein stability index read?
The protein stability index was 4.18.

With SSKEEQKLIATSNKPEVKLLYNRS [A16E] as the variant, how does the protein stability index read?
The protein stability index was 4.26.

With SSKEEQKLIATSNKPGVKLLYNRS [A16G] as the variant, how does the protein stability index read?
Its protein stability index is 3.79.

For SSKEEQKLIATSNKPRVKLLYNRS [A16R], which protein stability index is on record?
The protein stability index was 3.8.

With SSKEEQKLIATSNKPNVKLLYNRS [A16N] as the variant, how does the protein stability index read?
The protein stability index was 4.19.

Which protein stability index does the source give for SSKEEQKLIATSNKPQVKLLYNRS [A16Q] here?
The protein stability index was 4.19.

For SSKEEQKLIATSNKPPVKLLYNRS [A16P], which protein stability index is on record?
The protein stability index was 3.95.

With SSKEEQKLIATSNKPMVKLLYNRS [A16M] as the variant, how does the protein stability index read?
The protein stability index was 3.84.

For SSKEEQKLIATSNKPVVKLLYNRS [A16V], which protein stability index is on record?
Its protein stability index is 3.89.

With SSKEEQKLIATSNKPIVKLLYNRS [A16I] as the variant, how does the protein stability index read?
Its protein stability index is 3.97.

Which protein stability index does the source give for SSKEEQKLIATSNKPTVKLLYNRS [A16T] here?
Its protein stability index is 4.1.

With SSKEEQKLIATSNKPWVKLLYNRS [A16W] as the variant, how does the protein stability index read?
Its protein stability index is 2.94.

Which protein stability index does the source give for SSKEEQKLIATSNKPKVKLLYNRS [A16K] here?
The protein stability index was 4.33.

With SSKEEQKLIATSNKPSVKLLYNRS [A16S] as the variant, how does the protein stability index read?
The protein stability index was 4.2.

With SSKEEQKLIATSNKPFVKLLYNRS [A16F] as the variant, how does the protein stability index read?
The protein stability index was 3.57.

With SSKEEQKLIATSNKPHVKLLYNRS [A16H] as the variant, how does the protein stability index read?
Its protein stability index is 4.16.

With SSKEEQKLIATSNKPYVKLLYNRS [A16Y] as the variant, how does the protein stability index read?
Its protein stability index is 3.56.

Which protein stability index does the source give for SSKEEQKLIATSNKNAVKLLYNRS [P15N] here?
The protein stability index was 4.08.

Which protein stability index does the source give for SSKEEQKLIATSNKGAVKLLYNRS [P15G] here?
The protein stability index was 4.24.

For SSKEEQKLIATSNKLAVKLLYNRS [P15L], which protein stability index is on record?
Its protein stability index is 2.93.

Which protein stability index does the source give for SSKEEQKLIATSNKCAVKLLYNRS [P15C] here?
Its protein stability index is 2.96.

Which protein stability index does the source give for SSKEEQKLIATSNKYAVKLLYNRS [P15Y] here?
The protein stability index was 3.1.

For SSKEEQKLIATSNKKAVKLLYNRS [P15K], which protein stability index is on record?
The protein stability index was 3.39.

Which protein stability index does the source give for SSKEEQKLIATSNKDAVKLLYNRS [P15D] here?
The protein stability index was 4.2.

Which protein stability index does the source give for SSKEEQKLIATSNKQAVKLLYNRS [P15Q] here?
The protein stability index was 3.96.

With SSKEEQKLIATSNKMAVKLLYNRS [P15M] as the variant, how does the protein stability index read?
Its protein stability index is 3.47.

For SSKEEQKLIATSNKAAVKLLYNRS [P15A], which protein stability index is on record?
The protein stability index was 3.54.

With SSKEEQKLIATSNKWAVKLLYNRS [P15W] as the variant, how does the protein stability index read?
Its protein stability index is 2.19.

For SSKEEQKLIATSNKFAVKLLYNRS [P15F], which protein stability index is on record?
Its protein stability index is 3.1.

Which protein stability index does the source give for SSKEEQKLIATSNKRAVKLLYNRS [P15R] here?
Its protein stability index is 3.51.

Which protein stability index does the source give for SSKEEQKLIATSNKVAVKLLYNRS [P15V] here?
The protein stability index was 3.13.

Which protein stability index does the source give for SSKEEQKLIATSNKTAVKLLYNRS [P15T] here?
The protein stability index was 3.73.

Which protein stability index does the source give for SSKEEQKLIATSNKEAVKLLYNRS [P15E] here?
The protein stability index was 4.53.

Which protein stability index does the source give for SSKEEQKLIATSNKHAVKLLYNRS [P15H] here?
The protein stability index was 3.86.

With SSKEEQKLIATSNKSAVKLLYNRS [P15S] as the variant, how does the protein stability index read?
Its protein stability index is 4.07.

With SSKEEQKLIATSNKIAVKLLYNRS [P15I] as the variant, how does the protein stability index read?
The protein stability index was 2.81.

With SSKEEQKLIATSYKPAVKLLYNRS [N13Y] as the variant, how does the protein stability index read?
The protein stability index was 3.38.

Which protein stability index does the source give for SSKEEQKLIATSWKPAVKLLYNRS [N13W] here?
The protein stability index was 2.67.

With SSKEEQKLIATSNVPAVKLLYNRS [K14V] as the variant, how does the protein stability index read?
Its protein stability index is 3.96.

For SSKEEQKLIATSNAPAVKLLYNRS [K14A], which protein stability index is on record?
Its protein stability index is 3.76.

For SSKEEQKLIATSNTPAVKLLYNRS [K14T], which protein stability index is on record?
Its protein stability index is 4.04.

For SSKEEQKLIATSNCPAVKLLYNRS [K14C], which protein stability index is on record?
The protein stability index was 3.73.

For SSKEEQKLIATSNYPAVKLLYNRS [K14Y], which protein stability index is on record?
Its protein stability index is 3.46.

With SSKEEQKLIATSNNPAVKLLYNRS [K14N] as the variant, how does the protein stability index read?
The protein stability index was 3.96.

With SSKEEQKLIATSNWPAVKLLYNRS [K14W] as the variant, how does the protein stability index read?
The protein stability index was 2.63.

With SSKEEQKLIATSNEPAVKLLYNRS [K14E] as the variant, how does the protein stability index read?
The protein stability index was 4.39.

For SSKEEQKLIATSNHPAVKLLYNRS [K14H], which protein stability index is on record?
The protein stability index was 3.59.

For SSKEEQKLIATSNIPAVKLLYNRS [K14I], which protein stability index is on record?
Its protein stability index is 3.66.

For SSKEEQKLIATSNRPAVKLLYNRS [K14R], which protein stability index is on record?
Its protein stability index is 4.2.

Which protein stability index does the source give for SSKEEQKLIATSNMPAVKLLYNRS [K14M] here?
The protein stability index was 3.76.

For SSKEEQKLIATSNFPAVKLLYNRS [K14F], which protein stability index is on record?
The protein stability index was 3.39.

Which protein stability index does the source give for SSKEEQKLIATSNDPAVKLLYNRS [K14D] here?
Its protein stability index is 4.57.

Which protein stability index does the source give for SSKEEQKLIATSNQPAVKLLYNRS [K14Q] here?
The protein stability index was 4.28.

For SSKEEQKLIATSNGPAVKLLYNRS [K14G], which protein stability index is on record?
The protein stability index was 4.03.

Which protein stability index does the source give for SSKEEQKLIATSNPPAVKLLYNRS [K14P] here?
The protein stability index was 4.32.

With SSKEEQKLIATSNLPAVKLLYNRS [K14L] as the variant, how does the protein stability index read?
Its protein stability index is 3.8.

For SSKEEQKLIATSNSPAVKLLYNRS [K14S], which protein stability index is on record?
The protein stability index was 4.24.

For SSKEEQKLIATSNKPAVALLYNRS [K18A], which protein stability index is on record?
Its protein stability index is 4.05.

Which protein stability index does the source give for SSKEEQKLIATSNKPAVSLLYNRS [K18S] here?
The protein stability index was 4.39.

For SSKEEQKLIATSNKPAVQLLYNRS [K18Q], which protein stability index is on record?
Its protein stability index is 4.39.

Which protein stability index does the source give for SSKEEQKLIATSNKPAVELLYNRS [K18E] here?
Its protein stability index is 4.34.

Which protein stability index does the source give for SSKEEQKLIATSNKPAVTLLYNRS [K18T] here?
Its protein stability index is 3.74.

For SSKEEQKLIATSNKPAVRLLYNRS [K18R], which protein stability index is on record?
The protein stability index was 4.33.

For SSKEEQKLIATSNKPAVILLYNRS [K18I], which protein stability index is on record?
Its protein stability index is 2.34.

With SSKEEQKLIATSNKPAVGLLYNRS [K18G] as the variant, how does the protein stability index read?
Its protein stability index is 4.02.

For SSKEEQKLIATSNKPAVFLLYNRS [K18F], which protein stability index is on record?
The protein stability index was 2.83.

Which protein stability index does the source give for SSKEEQKLIATSNKPAVNLLYNRS [K18N] here?
Its protein stability index is 4.26.

For SSKEEQKLIATSNKPAVLLLYNRS [K18L], which protein stability index is on record?
The protein stability index was 3.25.

Which protein stability index does the source give for SSKEEQKLIATSNKPAVMLLYNRS [K18M] here?
The protein stability index was 3.45.

With SSKEEQKLIATSNKPAVDLLYNRS [K18D] as the variant, how does the protein stability index read?
The protein stability index was 4.25.

Which protein stability index does the source give for SSKEEQKLIATSNKPAVCLLYNRS [K18C] here?
Its protein stability index is 4.21.

With SSKEEQKLIATSNKPAVHLLYNRS [K18H] as the variant, how does the protein stability index read?
The protein stability index was 3.89.

For SSKEEQKLIATSNKPAVPLLYNRS [K18P], which protein stability index is on record?
The protein stability index was 4.25.
